{
  "source": "paper PMC4539990",
  "target": "purified FLAG-cortactin (rat) (UniProt Q66HL2)",
  "sequence (Q66HL2 whole entry)": "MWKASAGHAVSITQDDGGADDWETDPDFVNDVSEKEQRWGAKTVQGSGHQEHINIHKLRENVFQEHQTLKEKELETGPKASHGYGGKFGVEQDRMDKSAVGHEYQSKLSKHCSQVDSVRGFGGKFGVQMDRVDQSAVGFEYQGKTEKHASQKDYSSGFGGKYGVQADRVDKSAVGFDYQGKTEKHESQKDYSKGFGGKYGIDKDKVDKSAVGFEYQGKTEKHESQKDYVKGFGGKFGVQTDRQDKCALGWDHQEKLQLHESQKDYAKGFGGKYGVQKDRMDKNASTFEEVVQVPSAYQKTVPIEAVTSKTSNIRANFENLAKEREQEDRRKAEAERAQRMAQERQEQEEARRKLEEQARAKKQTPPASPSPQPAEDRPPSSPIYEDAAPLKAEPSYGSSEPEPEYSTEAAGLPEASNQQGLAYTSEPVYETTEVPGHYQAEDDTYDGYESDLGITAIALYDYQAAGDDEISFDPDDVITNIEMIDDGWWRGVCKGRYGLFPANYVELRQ",
  "experiment": "pull-down",
  "data": [
    {"substance": "purified shootin1 wild type (natural protein)", "values": [
      {"measurement": "Kd", "result": 25, "unit": "nM"}
    ]}
  ]
}
